Measured values published in PMC11362597, “Neutrophil-specific interactome of ARHGAP25 reveals novel partners and regulatory insights” (Scientific Reports, 2024).

Target: T1, GST-fused recombinant ARHGAP25 (human, UniProt P42331 1-645)
T1 construct: also called GST-ARHGAP25; GST-tagged recombinant ARHGAP25
T1 sequence (looked up): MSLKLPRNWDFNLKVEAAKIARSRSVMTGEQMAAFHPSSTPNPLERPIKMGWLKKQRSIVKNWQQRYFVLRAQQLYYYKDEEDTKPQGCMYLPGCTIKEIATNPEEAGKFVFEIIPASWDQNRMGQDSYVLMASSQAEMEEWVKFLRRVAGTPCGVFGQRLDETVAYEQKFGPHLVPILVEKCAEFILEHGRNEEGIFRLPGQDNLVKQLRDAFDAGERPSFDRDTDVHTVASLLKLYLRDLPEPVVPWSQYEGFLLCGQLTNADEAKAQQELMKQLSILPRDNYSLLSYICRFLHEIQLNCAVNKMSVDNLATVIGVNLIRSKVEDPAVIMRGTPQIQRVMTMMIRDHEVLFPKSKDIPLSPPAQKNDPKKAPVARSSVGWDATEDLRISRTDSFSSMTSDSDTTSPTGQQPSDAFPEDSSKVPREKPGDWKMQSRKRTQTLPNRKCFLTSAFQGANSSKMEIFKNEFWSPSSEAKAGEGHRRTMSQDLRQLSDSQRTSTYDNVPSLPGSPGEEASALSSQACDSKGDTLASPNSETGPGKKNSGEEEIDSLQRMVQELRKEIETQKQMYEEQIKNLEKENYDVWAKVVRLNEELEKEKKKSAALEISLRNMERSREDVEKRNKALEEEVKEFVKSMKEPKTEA
Assay: affinity purification with mass spectrometry; GST-ARHGAP25 on glutathione agarose beads incubated with neutrophil lysate loaded beforehand with GTPγS or GDPβS (15 mM EDTA, 15 min, RT; stopped with 60 mM MgCl2), 45 min, 4 °C; LFQ values of the two loadings compared
Conditions: one partner purified

B1: RAB27A (natural protein, UniProt P51159 1-221, looked up)
chain: MSDGDYDYLIKFLALGDSGVGKTSVLYQYTDGKFNSKFITTVGIDFREKRVVYRASGPDGATGRGQRIHLQLWDTAGQERFRSLTTAFFRDAMGFLLLFDLTNEQSFLNVRNWISQLQMHAYCENPDIVLCGNKSDLEDQRVVKEEEAIALAEKYGIPYFETSAANGTNISQAIEMLLDLIMKRMERCVDKSWIPEGVVRSNGHASTDQLSEEKEKGACGC
notes: RAB27A, small GTPase, endogenous in human neutrophilic granulocytes; In some pull-downs the lysate was loaded with GTPγS or GDPβS beforehand; source: endogenous, human neutrophilic granulocyte lysate
log2ΔFC of LFQ values, GTPγS-loaded against GDPβS-loaded lysate: < 0.2

B2: ARF4 (natural protein, UniProt P18085 1-180, looked up)
chain: MGLTISSLFSRLFGKKQMRILMVGLDAAGKTTILYKLKLGEIVTTIPTIGFNVETVEYKNICFTVWDVGGQDRIRPLWKHYFQNTQGLIFVVDSNDRERIQEVADELQKMLLVDELRDAVLLLFANKQDLPNAMAISEMTDKLGLQSLRNRTWYVQATCATQGTGLYEGLDWLSNELSKR
notes: ARF4, small GTPase, endogenous in human neutrophilic granulocytes; In some pull-downs the lysate was loaded with GTPγS or GDPβS beforehand; source: endogenous, human neutrophilic granulocyte lysate
log2ΔFC of LFQ values, GTPγS-loaded against GDPβS-loaded lysate: < 0.2

B3: RHOG (natural protein)
chain: not shown
notes: RHOG, small GTPase of the Rac subfamily, endogenous in human neutrophilic granulocytes; In some pull-downs the lysate was loaded with GTPγS or GDPβS beforehand; source: endogenous, human neutrophilic granulocyte lysate
log2ΔFC of LFQ values, GTPγS-loaded against GDPβS-loaded lysate: 0.589
